Blank lines part the entries; values can stand above or below the molecule they belong to.
Legend:
[1] = biological target: Bacillus megaterium SqvB (DUF4867 family member) (Bacillus megaterium); assay: SEC-MALS; SEC-MALLS; 100 ul injected at 2.7 mg/mL; running buffer 50 mM Tris pH 7.5, 300 mM NaCl; room temperature (20 ± 2 °C)
purified protein = substrate: O=[N+]([O-])c1ccc(O[C@H]2O[C@H](CS(=O)(=O)O)[C@@H](O)[C@H](O)[C@H]2O)cc1; assay: purified protein; assay type: biochemical, Agathobacter rectalis; settings: PBS (50 mM sodium phosphate, 150 mM NaCl), pH 6.5, 30 °C

stoichiometry N [1]: 2
Molecule: Bacillus megaterium SqvB (DUF4867 family member) (natural protein)

B1: SftG (E. rectale SftG SQase) (Agathobacter rectalis ATCC 33656) (protein)
chain: MQIKVNDNEFQLFVGEKRILEHSKERPMIYVGVGQEDVDMYRGNFKITDYVTERFPLKLTDVIQTADTVRLCFESYIIAKIKCDENLCTIDFEQKDDRINRFWFRVAADKEEKCYGCGEQMSYFNLRGRNFPIWTSEPGVGRDKTTYVTWRSDVENKAGGDYYNTNYPQPTFVSTNKYYLHVDSTAYADFDFRNDSFHELQIWEVPKQIRIECADTYLKLLERITTYFGRQPKLPDWVYNGLIIGVQGGNERSFGLLDKTLDRNIKVAGIWCQDWCGKRVTSFGKRLQWDWKYHKEMYPDLPKKIKEINAKGIKFLGYVNPYLVNDGELYKEGKEKGYFATKADGSDYLVDFGEFYCGVVDLTNPEAFEWFKDIIKEYTLGIGIDGWMADFGEYLPTDDICLYSGKSPMIEHNHWPVLWAKCNYEAVKESGKLGDVVYFMRAGGAGSQKYCTLLWAGDQSVDFTIHDGLASVICGALSAGMMGCGLTHSDIGGYTSLFDNTRTKELFLRWAEMAMFTPFMRTHEGNRPDTNFQYYDDEDTMERLARLVDVYTMLAPYTKTLVEENADSGHPVQRPLFMHYESDAKAYDIQYEYLFGRDMLIAPVYEQDKHEWDVYLPQDEWVHLWTGEEYHGGEITVSAELGYTPAFYRKNSEFADIFEEIREKYGVK
notes: codon-optimised gene in pET29a(+), C-terminal His6 tag, expressed in E. coli NEB T7 Express
Km (purified protein): 0.478 ± 0.03 mM | kcat (purified protein): 78.8 ± 3.9 s⁻¹ | kcat/Km (purified protein): 165000 ± 18000 M⁻¹ s⁻¹

Source: paper PMC11968277, “Sulfoglycolysis sustains Eubacterium rectale in low-fiber diets” (The Journal of Biological Chemistry, 2025)
